According to patent US20160215067A1 (CASE WESTERN RESERVE UNIVERSITY, published 2016):

Experiments:
[1] = molecular target: anti-CEP humanized antibody (anti-CEP huAb), full length; experiment: competitive ELISA, CEP-BSA coated, inhibitor preincubated with anti-CEP huAb
[2] = molecular target: anti-CEP humanized antibody (anti-CEP huAb), full length; experiment: competitive ELISA, CEP-BSA coated
[3] = molecular target: T1, CEP-modified human serum albumin (CEP-HSA) (human, UniProt P02768 25-609, 2-(omega-carboxyethyl)pyrrole (CEP) derivatives of primary amino groups; sites and number not stated); experiment: BIAcore SPR, single-cycle kinetics; CEP-HSA immobilised as ligand, antibody as analyte [panel A, table under the sensorgram]
T1 construct: The antibodies recognise the CEP hapten on the carrier protein

[4] = molecular target: T1, CEP-modified human serum albumin …; experiment: BIAcore 3000, CEP-HSA immobilized on CM5 chip, single-cycle kinetics, bivalent fit
Experimental: (§1) The binding affinity of each antibody was measured using BIAcore technology.

[5] = molecular target: T1, CEP-modified human serum albumin …; experiment: BIAcore, CEP-HSA on chip
Experimental: as §1

[6] = molecular target: T1, CEP-modified human serum albumin …; experiment: BIAcore SPR, single-cycle kinetics; CEP-HSA immobilised as ligand, antibody as analyte [panel B, table under the sensorgram]
Experimental: as §1

[7] = molecular target: T1, CEP-modified human serum albumin …; experiment: BIAcore SPR, single-cycle kinetics; CEP-HSA immobilised as ligand, antibody as analyte [table under the sensorgram]
[8] = molecular target: T1, CEP-modified human serum albumin …; experiment: BIAcore single-cycle kinetic analysis

Q: “CEP-modified human serum albumin (CEP-HSA) (from UniProt P02768 25-609)” was tested. Which IC50 [1] did it give?
A: The IC50 was 0.0056 µM.

Q: CPP-HSA (from UniProt P02768 25-609) was tested. Which IC50 [1] did it give?
A: The IC50 was 10.5 µM.

Q: For CHP-BSA (from UniProt P02769 25-607), which IC50 [1] is on record?
A: The IC50 was 4690 µM.

Q: What about the fold lower cross-reactivity than with anti-CEP mumAb [2] of the same molecule?
A: The fold lower cross-reactivity than with anti-CEP mumAb was less than 10 fold.

B1: anti-CEP murine monoclonal antibody (anti-CEP mumAb), hybridoma clone 2D3.3G9-1 (antibody, mouse IgG2a, V domains shown)
VH: QIQLIQSGPELKKPGETVKISCKPSGYAFTKYGMDWVKQAPGEGLKWMGRINTYTGEPTYADDFKGRFAFSLEASASTAYLQINNLKNEDTATYFCARRRDGYPFAYWGQGTLVTVSS
VL: DIVMTQSHKFMSTSVRDRVSITCKASQDVSTAVAWYQQKPGQSPKILIYSASYRFPGVPDRFTGSGSGTDFTFTISSVQAEDLAVYYCHQHYFIPYTFGGGTKLEIK
notes: also called murine anti-CEP mAb; mouse counterpart
Q: How did the koff [3] turn out when B1 was run?
A: The koff was 0.00377 s⁻¹.

Q: And the kon [3]?
A: The kon was 2.36e+07 M⁻¹ s⁻¹.

Q: And the Kd [4]?
A: Its Kd is 0.00016 µM.

B2: anti-CEP humanized antibody (anti-CEP huAb), full length (antibody, human IgG1, V domains shown)
VH: QVQLVQSGAEVKKPGASVKVSCKASGYAFTKYGMDWVRQAPGQGLEWMGRINTYTGEPTYADDFKGRVTITADTSTSTAYMELSSLRSEDTAVYYCARRRDGYPFAYWGQGTLVTVSS
VL: DIVMTQSPDSLAVSLGERATINCKASQDVSTAVAWYQQKPGQPPKLLIYSASYRFPGVPDRFSGSGSGTDFTLTISSLQAEDVAVYYCHQHYFIPYTFGGGTKLEIK
notes: Human IgG1 heavy constant region (vector pFUSE-CHIg-hG1) and human kappa constant region (pFUSE2-CLIg-hk); expressed in CHO-S cells, clone A1; also called original anti-CEP huAb; anti-CEP humAb
Q: For B2, which “fold weaker affinity than anti-CEP mumAb” value [5] is on record?
A: The value was roughly 10 fold.

Q: What about the Kd [4] of the same molecule?
A: Its Kd is 0.00158 µM.

Q: And the koff [6]?
A: The koff was 0.00025 s⁻¹.

Q: What about the kon [6] of the same molecule?
A: The kon was 159000 M⁻¹ s⁻¹.

B3: Mutant 2F1, full length anti-CEP huAb mutant (antibody, V domains shown)
VH: QVQLVQSGAEVKKPGASVKVSCKASGYALTKYGMDWVRQAPGQGLEWMGRINTYTGEPTYADDFKGRVTITADTSTSTAYMELSSLRSEDTAVYYCARRRGGYPFAYWGQGTLVTVSS
VL: DIVMTQSPDSLAVSLGERATINCKASQDVSTAVAWYQQKPGQPPKLLIYSASYRFPGVPDRFSGSGSGTDFTLTISSLQAEDVAVYYCHQHYFIPYTFGGGTKLEIK
Q: For B3, which koff [7] is on record?
A: Its koff is 0.000228 s⁻¹.

Q: What about the kon [7] of the same molecule?
A: The kon was 308000 M⁻¹ s⁻¹.

Q: And the Kd [8]?
A: The Kd was 0.00074 µM.

Q: And the “fold stronger affinity than original anti-CEP huAb” value [8]?
A: Its value is roughly 2 fold.
